# Earlier results, collected in PMC2908543, “Uropathogenic Escherichia coli Modulates Immune Responses and Its Curli Fimbriae Interact with the Antimicrobial Peptide LL-37” (PLoS Pathogens, 2010).
# B1: lactoferrin (protein, UniProt P02788 20-710, looked up)
# Lactotransferrin: GRRRSVQWCAVSQPEATKCFQWQRNMRKVRGPPVSCIKRDSPIQCIQAIAENRADAVTLDGGFIYEAGLAPYKLRPVAAEVYGTERQPRTHYYAVAVVKKGGSFQLNELQGLKSCHTGLRRTAGWNVPIGTLRPFLNWTGPPEPIEAAVARFFSASCVPGADKGQFPNLCRLCAGTGENKCAFSSQEPYFSYSGAFKCLRDGAGDVAFIRESTVFEDLSDEAERDEYELLCPDNTRKPVDKFKDCHLARVPSHAVVARSVNGKEDAIWNLLRQAQEKFGKDKSPKFQLFGSPSGQKDLLFKDSAIGFSRVPPRIDSGLYLGSGYFTAIQNLRKSEEEVAARRARVVWCAVGEQELRKCNQWSGLSEGSVTCSSASTTEDCIALVLKGEADAMSLDGGYVYTAGKCGLVPVLAENYKSQQSSDPDPNCVDRPVEGYLAVAVVRRSDTSLTWNSVKGKKSCHTAVDRTAGWNIPMGLLFNQTGSCKFDEYFSQSCAPGSDPRSNLCALCIGDEQGENKCVPNSNERYYGYTGAFRCLAENAGDVAFVKDVTVLQNTDGNNNEAWAKDLKLADFALLCLDGKRKPVTEARSCHLAMAPNHAVVSRMDKVERLKQVLLHQQAKFGRNGSDCPDKFCLFQSETKNLLFNDNTECLARLHGKTTYEKYLGPQYVAGITNLKKCSTSPLLEACEFLRK
# notes: antimicrobial polypeptide
# Tested on: Pseudomonas aeruginosa
# Details: ref [47]
# From the text: Biofilm inhibition by antimicrobial polypeptides has previously been described for Pseudomonas aeruginosa. […] A direct interaction with biofilm components was not investigated in these studies. The effect was rather related to an influence of LL-37 on the bacterial gene expression profile or an influence of lactoferrin on free iron. These and our findings stress an important anti-biofilm role of antimicrobial polypeptides in host defense. It is likely that the anti-biofilm activit ...
molecule,measurement,value
B1,bacterial surface motility mediated by type IV pili,increased bacterial surface motility
